Legend:
MukE (Escherichia coli) = MukE (Escherichia coli) (UniProt P22524); conditions: cited from earlier work
[1] = biological target: MukE-LLFR (MukE-L38S/L41A/F185S/R186E) (E. coli) (UniProt P22524); assay: AUC

Sequence of MukE (P22524 whole entry): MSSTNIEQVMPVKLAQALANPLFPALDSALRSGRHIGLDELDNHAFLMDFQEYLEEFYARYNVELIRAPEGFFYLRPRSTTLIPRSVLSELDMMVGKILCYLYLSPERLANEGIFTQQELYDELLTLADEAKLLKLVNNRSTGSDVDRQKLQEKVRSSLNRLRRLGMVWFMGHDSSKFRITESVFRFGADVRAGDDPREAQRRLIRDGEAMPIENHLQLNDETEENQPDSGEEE

Substance | Kd (MukE (Escherichia coli)) [µM] | Kd [1] [µM]
MukE (from UniProt P22524) | 18 | 
MukE-LLFR (MukE-L38S/L41A/F185S/R186E) (from UniProt P22524 10-234) (natural protein) |  | 450
